T1: cynomolgus MSLN-His-Avi (cynomolgus, single biotin (BirA) in the biotinylated form)
T1 construct: Monomeric, made in HEK293-6E; also called cMSLN-His-Avi; cyno MSLN-His-Avi
T1 chain: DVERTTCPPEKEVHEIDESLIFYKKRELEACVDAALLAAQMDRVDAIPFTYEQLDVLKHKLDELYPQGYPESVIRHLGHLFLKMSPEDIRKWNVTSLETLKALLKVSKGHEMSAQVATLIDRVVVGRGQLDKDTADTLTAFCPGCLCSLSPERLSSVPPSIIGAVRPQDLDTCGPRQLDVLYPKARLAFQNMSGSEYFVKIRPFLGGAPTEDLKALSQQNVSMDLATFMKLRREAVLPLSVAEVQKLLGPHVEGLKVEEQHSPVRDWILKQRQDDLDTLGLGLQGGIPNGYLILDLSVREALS


Legend:
[1] = biological target: T2, human MSLN-His-Avi (human, UniProt Q13421 296-598, single biotin (BirA) in the biotinylated form); assay: ratio of the two SPR KD
T2 construct: Monomeric, made in HEK293-6E; Used both immobilised and in solution; also called hMSLN-His-Avi; biotinylated hMSLN-His-Avi
Experimental: (§1) Human MSLN-His-Avi was immobilised on flow cell 2 on a CM5 Series S BIAcore sensor chip (GE Healthcare, BR100530) using an amine coupling kit (GE Healthcare, BR10050) to approximately 200 response units (RU). Flow cell 1 was left blank for subtraction. HEK293-6E supernatants or purified proteins were adjusted with HBS-EP+(GE Healthcare) to approximately 50 nM anti-MSLN mAb per sample. Samples were injected over flow cell 1 and 2 for 2.5 min at 30 μl/min and then allowed to dissociate in HBS-EP buffer for 2.5 min. Regeneration was achieved by injecting 10 mM glycine pH 1.5 (GE Healthcare, BR100354) for 30 seconds at a rate of 30 μl/min. Subtracted data (flow cell 2−flow cell 1) were analysed using BIAevaluation 3.2 Software (GE Healthcare).
(§2) Binding of the selected anti-MSLN clones in mAb² format, to recombinant human and cyno MSLN-His-Avi antigen was measured by SPR using a Biacore T200 processing unit (GE Healthcare). As previously described, it was desirable to bind more strongly to immobilised antigen than to soluble antigen. To assess the binding properties of the clones, binding kinetics to immobilised MSLN antigen were determined as described in section 2.1.2 and compared to the kinetics obtained when MSLN antigens in solution bound to captured clones.
(§3) For the capture experiments, clones in mAb² format were captured using a BIAcore sensor series S chip Protein G (GE Healthcare, 29179315). mAb² diluted in HBS-EP buffer (GE Healthcare, BR100188) containing 900 mM […] at 1 μg/ml, were injected individually on flow cell 2, 3 and 4 at 30 μl/min to achieve a response of approximately 100 RU. G1-AA/HeID1.3 was captured on flow cell 1. The recombinant human and cyno MSLN-His-Avi (section 1.1), diluted in HBS-EP buffer containing 900 mM […], were injected on flow cell 1, 2, 3 or 4 as appropriate at a concentration range of 1000 nM to 0.051 nM with 3-fold dilutions for 5 minutes at 70 μl/min and then allowed to dissociate in buffer for 5 minutes. Regeneration was achieved by injecting 10 mM glycine pH1.5 (GE Healthcare, BR100354) and surfactant P20 (GE Healthcare, BR-1000-54) for 20 seconds at a rate of 30 μl/min.

[2] = biological target: T3, cell surface human mesothelin (MSLN) (human, UniProt Q13421 296-598); assay: flow cytometry, NCI-H226 cells
T3 construct: whole, on cells; also called cell surface MSLN
Experimental: (§4) Cells were centrifuged at 1200 rpm for 3 min and resuspended in ice cold FACS buffer made up of DPBS (Life Technologies, 14190169) and 1% BSA (Sigma-Aldrich, A7906) at 2×10⁶ cells/ml and 50 μl per well was seeded in a 96-well V-bottom plate (Costar, 3894). All mAbs tested were diluted in FACS buffer in 120 μl at a concentration range of 0.01-200 nM (4-fold dilutions). The NCI-H226 cells were then centrifuged, supernatant removed and cells resuspended in 100 μl of each mAb dilution and incubated at 4° C. for 45 min. Cells were washed twice by centrifugation with 150 μl FACS buffer, resuspended in 100 μl containing goat anti-human IgG (γ-chain specific) F(ab′)2 fragment-R-Phycoerythrin antibody (Sigma, P8047) diluted 1:1000 in FACS buffer and incubated at 4° C. for 45 min. The cells were washed once with 150 μl FACS buffer and then with 150 μl DPBS, resuspended in 150 μl DPBS containing DAPI (Biotium, 40043) at 1:10.000 and read on the BDCantoll or iQue (Intellicyt). Data was analysed using FlowJo v10 to determine the signal geometric mean for PE for live cells in each well.
(§5) Cell binding assays using OVCAR-3 cells were performed similarly to the assays described in section 2.4. The effect of the presence of soluble MSLN was tested by pre-incubating the antibodies in the presence or absence of soluble MSLN before mixing with cells and determining if the pre-incubation affected binding to MSLN on the cell surface. […] 60 μl from each well was then added to either FACS buffer alone or to FACS buffer containing 60 μl of 40 nM recombinant hMSLN (R&D systems, 3265-MS-050) (to give a final concentration of 20 nM hMSLN) and pre-incubated at room temperature for 1 hour before 100 μl was added to the cells. Bound antibody was detected using goat anti-human anti-Fcγ Alexa-Fluor 488 (Jackson Immunoresearch, 109-546-098).
(§6) The method used was exactly as described in section 3.1.4.

[3] = biological target: T2, human MSLN-His-Avi; assay: SPR (Biacore), MSLN immobilised, mAb^2 injected
Experimental: as §1, §2

[4] = biological target: T3, cell surface human mesothelin (MSLN); assay: flow cytometry, NCI-H226 cells + 20 nM soluble MSLN
Experimental: as §4, §5, §6

[5] = biological target: T2, human MSLN-His-Avi; assay: SPR (Biacore), mAb^2 captured on Protein G, MSLN in solution injected
Experimental: as §2
as §3, with “μl/min. Subtracted data (flow cell 2−flow cell 1, flow cell 3−flow cell 1, or flow cell 4−flow cell 1) were analysed using BIAevaluation 3.2 Software (GE Healthcare) to identify binding using the model 1:1 binding, local Rmax and with refractive index (RI) constant 0.” for “μl/min.”

[6] = biological target: T1, cynomolgus MSLN-His-Avi; assay: as above
Experimental: as §2
as §3, with “μl/min. Subtracted data (flow cell 2−flow cell 1, flow cell 3−flow cell 1, or flow cell 4−flow cell 1) were analysed using BIAevaluation 3.2 Software (GE Healthcare) to identify binding using the model 1:1 binding, local Rmax and with refractive index (RI) constant 0.” for “μl/min.”

T3 sequence (Q13421 other isoform, or with tags, fused parts or gaps limits assumed): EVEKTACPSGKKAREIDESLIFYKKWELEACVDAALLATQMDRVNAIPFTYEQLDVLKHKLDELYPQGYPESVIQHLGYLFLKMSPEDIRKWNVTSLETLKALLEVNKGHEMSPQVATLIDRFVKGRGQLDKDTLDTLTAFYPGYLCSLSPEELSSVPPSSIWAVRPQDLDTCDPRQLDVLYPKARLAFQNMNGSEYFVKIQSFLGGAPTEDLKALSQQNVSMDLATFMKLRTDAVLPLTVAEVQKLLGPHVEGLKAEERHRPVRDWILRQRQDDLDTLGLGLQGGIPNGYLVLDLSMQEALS
T2 sequence (Q13421 other isoform, or with tags, fused parts or gaps): as the sequence (Q13421 other isoform, or with tags, fused parts or gaps limits assumed) above

Row | Binder | Ratio of KD in solution/immobilised for human MSLN-His-Avi [1] | EC50 [2] [nM] | Emax (MFI) [2] [MFI] | Kd [3] [nM] | EC50 [4] [nM] | Emax (MFI) [4] [MFI] | Kd [5] [nM] | Kd [6] [nM]
1 | FS22-053-008-AA/FS28-256-021 mAb^2 (bispecific antibody, human IgG1, kappa, L234A L235A, V domains shown) VH: EVQLLESGGGLVQPGGSLRLSCAASGFTFTHTYMSWVRQAPGKGLEWVSNISPTYSTTNYADSVKGRFTISRDNNKNTLYLQMNSLRAEDTAVYYCARYNAYHAALDYWGQGTLVTVSS VL: EIVLTQSPGTLSLSPGERATLSCRASQSVSSSYLAWYQQKPGQAPRLLIYGASSRATGIPDRFSGSGSGTDFTLTISRLEPEDFAVYYCQQHNQYPNTFGQGTKVEIKR | 7 | 3.29 | 919000 | 3.3 | 7.65 | 839000 | 23.2 | 16.2
2 | FS22-053-008-AA/FS28-256-026 mAb^2 (bispecific antibody, human IgG1, kappa, L234A L235A, V domains shown) VH: EVQLLESGGGLVQPGGSLRLSCAASGFTFTQTYMSWVRQAPGKGLEWVSNISPTYSTTNYADSVKGRFTISRDNSKNTLYLQMNSLRAEDTAVYYCARYNAYQIGLDYWGQGTLVTVSS VL: EIVLTQSPGTLSLSPGERATLSCRASQSVSSSYLAWYQQKPGQAPRLLIYGASSRATGIPDRFSGSGSGTDFTLTISRLEPEDFAVYYCQQALGYPHTFGQGTKVEIKR | 19.5 | 2.43 | 741000 | 3.2 | 4.59 | 715000 | 62.3 | 33.2
3 | FS22-053-008-AA/FS28-256-024 mAb^2 (bispecific antibody, human IgG1, kappa, L234A L235A, V domains shown) VH: EVQLLESGGGLVQPGGSLRLSCAASGFTFTHTYMSWVRQAPGKGLEWVSNISPTYSTTNYADSVKGRFTISRDNNKNTLYLQMNSLRAEDTAVYYCARYNAYHAALDYWGQGTLVTVSS VL: EIVLTQSPGTLSLSPGERATLSCRASQSVSSSYLAWYQQKPGQAPRLLIYGASSRATGIPDRFSGSGSGTDFTLTISRLEPEDFAVYYCQQALGYPHTFGQGTKVEIKR | 14.3 | 3.88 | 813000 | 6.7 | 3.91 | 669000 | 95.4 | 56.7

More lines, in order of falling EC50 [2], values ahead:

Row | Ratio of KD in solution/immobilised for human MSLN-His-Avi [1] | EC50 [2] [nM] | Emax (MFI) [2] [MFI] | Kd [3] [nM] | EC50 [4] [nM] | Emax (MFI) [4] [MFI] | Kd [5] [nM] | Kd [6] [nM] | Binder
4 | 209 | 8.48 | 969000 | 4.1 | 4.83 | 790000 | 861 | 717 | FS22-053-008-AA/FS28-256-012 mAb^2 (bispecific antibody, human IgG1, kappa, L234A L235A, V domains shown) VH: EVQLLESGGGLVQPGGSLRLSCAASGFTFTHTYMSWVRQAPGKGLEWVSNISPTYSTTNYADSVKGRFTISRDNNKNTLYLQMNSLRAEDTAVYYCARYNAYHAALDYWGQGTLVTVSS VL: EIVLTQSPGTLSLSPGERATLSCRASQSVSSSYLAWYQQKPGQAPRLLIYGASSRATGIPDRFSGSGSGTDFTLTISRLEPEDFAVYYCQQSYYYPITFGQGTKVEIKR
5 | 5.3 | 3.93 | 987000 | 1.1 | 21.8 | 964000 | 6 | 0.7 | FS22-053-008-AA/FS28-256-027 mAb^2 (bispecific antibody, human IgG1, kappa, L234A L235A, V domains shown) VH: EVQLLESGGGLVQPGGSLRLSCAASGFTFTHTYMSWVRQAPGKGLEWVSNISPTYSTTNYADSVKGRFTISRDNNKNTLYLQMNSLRAEDTAVYYCARYNAYHAALDYWGQGTLVTVSS VL: EIVLTQSPGTLSLSPGERATLSCRASQSVSSSYLAWYQQKPGQAPRLLIYGASSRATGIPDRFSGSGSGTDFTLTISRLEPEDFAVYYCQQTVPYPYTFGQGTKVEIKR
6 | 20.8 | 3.29 | 856000 | 3.3 | 3.9 | 716000 | 68.6 | 32.6 | FS22-053-008-AA/FS28-256-023 mAb^2 (bispecific antibody, human IgG1, kappa, L234A L235A, V domains shown) VH: EVQLLESGGGLVQPGGSLRLSCAASGFTFTQTYMSWVRQAPGKGLEWVSNISPTYSTTNYADSVKGRFTISRDNSKNTLYLQMNSLRAEDTAVYYCARYNAYQIGLDYWGQGTLVTVSS VL: EIVLTQSPGTLSLSPGERATLSCRASQSVSSSYLAWYQQKPGQAPRLLIYGASSRATGIPDRFSGSGSGTDFTLTISRLEPEDFAVYYCQQHNQYPNTFGQGTKVEIKR
